Source: publication PMC2928781
Each block holds one substance with its values, some of them ahead of it.

How the values were obtained:
Assay in all cases: two-hybrid; L40 strain co-transformed with pGAD424 (prey) and pBTM116 (target) constructs; LACZ reporter read by ONPG assay (Miller units); each mutant against the wild-type MSH4 or MSH5 partner; three independent co-transformants
Msh5 (S. cerevisiae) = Msh5 (S. cerevisiae) (UniProt Q12175)
[1] = molecular target: Msh5 D250A (S. cerevisiae) (UniProt Q12175)
[2] = molecular target: Msh5 D433A (S. cerevisiae) (UniProt Q12175)
[3] = molecular target: Msh5 D527A (S. cerevisiae) (UniProt Q12175)
[4] = molecular target: Msh5 D532A (S. cerevisiae) (UniProt Q12175)
[5] = molecular target: Msh5 D539A (S. cerevisiae) (UniProt Q12175)
[6] = molecular target: Msh5 D680A (S. cerevisiae) (UniProt Q12175)
[7] = molecular target: Msh5 D76A (S. cerevisiae) (UniProt Q12175)
[8] = molecular target: Msh5 E45A (S. cerevisiae) (UniProt Q12175)
[9] = molecular target: Msh5 G648A (S. cerevisiae) (UniProt Q12175)
[10] = molecular target: Msh5 N182A (S. cerevisiae) (UniProt Q12175)
[11] = molecular target: Msh5 R436A (S. cerevisiae) (UniProt Q12175)
[12] = molecular target: Msh5 R685W (S. cerevisiae) (UniProt Q12175)
[13] = molecular target: Msh5 S416A (S. cerevisiae) (UniProt Q12175)
[14] = molecular target: Msh5 V488A (S. cerevisiae) (UniProt Q12175)
[15] = molecular target: Msh5 W298A (S. cerevisiae) (UniProt Q12175)
[16] = molecular target: Msh5 Y480A (S. cerevisiae) (UniProt Q12175)
[17] = molecular target: Msh5 Y661A (S. cerevisiae) (UniProt Q12175)

Sequence of Msh4 (P40965 whole entry): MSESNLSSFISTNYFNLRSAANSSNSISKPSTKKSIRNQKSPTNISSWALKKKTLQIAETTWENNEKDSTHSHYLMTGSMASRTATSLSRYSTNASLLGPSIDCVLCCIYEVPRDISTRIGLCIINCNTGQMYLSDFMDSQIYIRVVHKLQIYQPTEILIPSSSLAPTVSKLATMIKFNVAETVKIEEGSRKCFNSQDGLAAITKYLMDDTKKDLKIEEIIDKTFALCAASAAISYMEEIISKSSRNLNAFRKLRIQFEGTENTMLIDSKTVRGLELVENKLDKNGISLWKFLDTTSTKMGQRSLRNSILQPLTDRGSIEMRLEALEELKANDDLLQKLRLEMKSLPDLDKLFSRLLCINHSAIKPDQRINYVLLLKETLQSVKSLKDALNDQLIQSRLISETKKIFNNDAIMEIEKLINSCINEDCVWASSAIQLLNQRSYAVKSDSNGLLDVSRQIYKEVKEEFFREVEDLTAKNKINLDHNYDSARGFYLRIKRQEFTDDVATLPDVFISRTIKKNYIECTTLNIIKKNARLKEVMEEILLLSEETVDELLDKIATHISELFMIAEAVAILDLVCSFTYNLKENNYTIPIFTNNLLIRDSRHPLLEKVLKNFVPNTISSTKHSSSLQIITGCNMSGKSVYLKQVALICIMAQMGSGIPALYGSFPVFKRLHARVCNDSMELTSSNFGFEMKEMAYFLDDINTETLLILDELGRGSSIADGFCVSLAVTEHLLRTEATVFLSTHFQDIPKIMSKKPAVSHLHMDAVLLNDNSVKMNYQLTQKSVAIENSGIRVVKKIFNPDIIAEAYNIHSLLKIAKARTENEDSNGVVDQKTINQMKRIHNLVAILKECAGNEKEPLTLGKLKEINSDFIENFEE

β-galactosidase activity (two-hybrid) (Msh5 (S. cerevisiae)): 54 Miller units | β-galactosidase activity (two-hybrid) [1]: 6.2 Miller units | β-galactosidase activity (two-hybrid) [2]: 1.4 Miller units | β-galactosidase activity (two-hybrid) [3]: 1.9 Miller units | β-galactosidase activity (two-hybrid) [4]: 3.7 Miller units | β-galactosidase activity (two-hybrid) [5]: 89 Miller units | β-galactosidase activity (two-hybrid) [6]: 1.4 Miller units | β-galactosidase activity (two-hybrid) [7]: 1.3 Miller units | β-galactosidase activity (two-hybrid) [8]: 62 Miller units | β-galactosidase activity (two-hybrid) [9]: 45 Miller units | β-galactosidase activity (two-hybrid) [10]: 63 Miller units | β-galactosidase activity (two-hybrid) [11]: 1.3 Miller units | β-galactosidase activity (two-hybrid) [12]: 46 Miller units | β-galactosidase activity (two-hybrid) [13]: 3 Miller units | β-galactosidase activity (two-hybrid) [14]: 1.4 Miller units | β-galactosidase activity (two-hybrid) [15]: 1.4 Miller units | β-galactosidase activity (two-hybrid) [16]: 2.2 Miller units | β-galactosidase activity (two-hybrid) [17]: 1.2 Miller units
Substance: Msh4 (from UniProt P40965 1-878) (natural protein)

β-galactosidase activity (two-hybrid) (Msh5 (S. cerevisiae)): 1.5 Miller units
Substance: Msh4 D139A (from UniProt P40965 1-878) (natural protein)

β-galactosidase activity (two-hybrid) (Msh5 (S. cerevisiae)): 70 Miller units
Substance: Msh4 E276A (from UniProt P40965 1-878) (natural protein)

β-galactosidase activity (two-hybrid) (Msh5 (S. cerevisiae)): 2.5 Miller units
Substance: Msh4 F491A (from UniProt P40965 1-878) (natural protein)

β-galactosidase activity (two-hybrid) (Msh5 (S. cerevisiae)): 11.6 Miller units
Substance: Msh4 G639A (from UniProt P40965 1-878) (natural protein)

β-galactosidase activity (two-hybrid) (Msh5 (S. cerevisiae)): 1.6 Miller units
Substance: Msh4 L493A (from UniProt P40965 1-878) (natural protein)

β-galactosidase activity (two-hybrid) (Msh5 (S. cerevisiae)): 1.9 Miller units
Substance: Msh4 R456A (from UniProt P40965 1-878) (natural protein)

β-galactosidase activity (two-hybrid) (Msh5 (S. cerevisiae)): 96 Miller units
Substance: Msh4 R676W (from UniProt P40965 1-878) (natural protein)
